Data: US20160376366A1 (IMMUNOMEDICS, published 2016)
Values belong to the binder of their own block, whether it stands above or below them.

What was measured:
[1] = target: T1, CD22 on CD22+ Daudi cells and on B cells within PBMCs (human, UniProt P20273 20-847); test: ELISA on CD22+ Daudi cells
T1 construct: whole, on cells; The target was presented on human cells; also called human CD22

[2] = target: T1, CD22 on CD22+ Daudi cells and on B …; test: flow cytometry (MFI) on CD22+ Daudi cells
Protocol: (§1) FIG. 3. […] Binding activity at indicated concentrations is given as the MFI. Measurements were performed in triplicate; standard deviations are shown as bars.
(§2) Cells were pelleted at 200 g at 4° C. for 5 min and washed twice with 500 μl of FACS buffer. For detection of bound antibodies, cells were incubated with saturating amounts of FITC conjugated F(ab) Fragment goat anti-Human IgG, Fc specific (13 μg/ml; Jackson Immuno Research, West Grove, Pa.) for 45 min at 4° C. and washed again with 500 μl of FACS buffer. Stained cells were analyzed on a FACSCAN™ Flow Cytometer (BD Bioscience, San Jose, Calif.), and median fluorescence intensity (MFI) was calculated using […]™ software (BD Bioscience).

[3] = target: T1, CD22 on CD22+ Daudi cells and on B …; test: flow cytometry on CD22+ Daudi cells, MFI, FITC anti-human Fc detection
Protocol: as §1, §2

[4] = target: T1, CD22 on CD22+ Daudi cells and on B …; test: ELISA on CD22+ Daudi cells (FIG. 2); reference hLL2
[5] = target: T1, CD22 on CD22+ Daudi cells and on B …; test: flow cytometry on CD22+ Daudi cells; reference hLL2 IgG
Protocol: as §1, §2

Kd [1]: 7.6 nM | EC50 [2]: 1.03 µg/mL | EC50 [3]: 6.9 nM
B1: humanized anti-CD22 LL2 antibody (hLL2, epratuzumab), IgG (antibody, V domains shown)
VH: QVQLQQSGAEVKKPGSSVKVSCKASGYTFTSYWLHWVRQAPGQGLEWIGYIYPRNDYTEYNQNFKDKATITADESTNTAYMELSSLRSEDTAFYFCARRDITTFYWGQGTTVTVSS
VL: DIQLTQSPSSLSASVGDRVTMSCKSSQSVLYSANHKNYLAWYQQKPGKAPKLLIYWASTRESGVPSRFSGSGSGTDFTFTISSLQPEDIATYYCHQYLSSWTFGGGTKVQIKR
notes: Tested as IgG with human constant regions; also called hLL2 IgG

fold higher binding affinity than hLL2 [4]: 10 fold | EC50 [2]: 0.055 µg/mL | EC50 [3]: 0.4 nM | fold higher affinity (EC50) than hLL2 [5]: 19 fold
B2: humanized RFB4 (hRFB4) anti-CD22 antibody, IgG (antibody, V domains shown)
VH: QVQLVQSGAEVKKPGSSVKVSCKASGFTFSIYDMSWVRQAPGQGLEWVAYISSGGGTTYYPDTVKGRFTITADESTNTAYMELSSLRSEDTAFYFCARHSGYGSSYGVLFAYWGQGTLVTVSS
VL: DIQLTQSPSSLSASVGDRVTISCRASQDISNYLNWYQQKPGKAPKLLIYYTSILHSGVPSRFSGSGSGTDYTFTISSLQPEDIATYYCQQGNTLPWTFGGGTKVQIKR
notes: RFB4 CDRs were inserted into the FR and constant regions of hLL2; also called hRFB4 IgG
